“And” between values parts separate entries of the source, which are not always exact repeats. Equal values may be shown once.

In experiment [1] the target is CDC42 IH variants (four different single residue mutations and a quadruple mutation of the insert helix). The experiment in a line: fluorescence polarisation; 1 µM mant-GDP-bound CDC42 in the cuvette, IQGAP protein titrated; quadratic ligand binding equation. For orientation: Polarisation of emitted light reports the rotation of a fluorescent probe.
Experiment [2] shares this target. Nature of the experiment: fluorescence polarisation; 1 µM mant-GppNHp-bound CDC42 in the cuvette, IQGAP protein titrated; quadratic ligand binding equation.
For experiment [3], the target named is human CDC42 (aa 1-178) 8xSW (human) (UniProt P60953). The description is as above.
Sequence of human CDC42 (aa 1-178) 8xSW (human) (P60953 1-178): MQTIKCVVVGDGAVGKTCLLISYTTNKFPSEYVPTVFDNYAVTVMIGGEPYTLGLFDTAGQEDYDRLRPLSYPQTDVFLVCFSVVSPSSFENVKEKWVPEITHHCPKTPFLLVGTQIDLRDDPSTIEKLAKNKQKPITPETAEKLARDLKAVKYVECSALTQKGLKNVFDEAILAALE
For experiment [4], the target named is the CDC42 variants (2xSW and 8xSW), mGppNHp-bound. The experiment is described as above.

Sequence of human IQGAP1 C794 (aa 863-1657) (P46940 863-1657): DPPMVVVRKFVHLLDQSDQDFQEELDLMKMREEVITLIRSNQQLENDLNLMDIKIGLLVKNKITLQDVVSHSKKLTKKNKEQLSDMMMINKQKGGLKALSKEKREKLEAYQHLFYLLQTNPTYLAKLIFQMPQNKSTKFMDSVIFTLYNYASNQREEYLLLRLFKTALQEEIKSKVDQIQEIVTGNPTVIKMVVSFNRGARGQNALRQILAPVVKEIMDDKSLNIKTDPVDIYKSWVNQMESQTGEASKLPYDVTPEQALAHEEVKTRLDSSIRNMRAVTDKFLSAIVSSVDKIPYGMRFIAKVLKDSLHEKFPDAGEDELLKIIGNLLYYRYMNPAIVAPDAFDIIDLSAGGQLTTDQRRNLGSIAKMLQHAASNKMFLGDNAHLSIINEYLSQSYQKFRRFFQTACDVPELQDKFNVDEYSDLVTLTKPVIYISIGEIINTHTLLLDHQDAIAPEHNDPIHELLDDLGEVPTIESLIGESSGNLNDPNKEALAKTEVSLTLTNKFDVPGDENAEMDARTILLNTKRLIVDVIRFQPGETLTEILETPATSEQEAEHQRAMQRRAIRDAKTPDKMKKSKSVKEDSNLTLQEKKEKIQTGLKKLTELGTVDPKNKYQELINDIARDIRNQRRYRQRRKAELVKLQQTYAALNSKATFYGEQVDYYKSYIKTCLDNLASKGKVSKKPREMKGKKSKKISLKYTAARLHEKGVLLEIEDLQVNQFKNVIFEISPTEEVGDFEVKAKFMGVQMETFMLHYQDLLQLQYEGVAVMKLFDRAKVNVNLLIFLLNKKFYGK
Sequence of human IQGAP1 GRD1 (aa 962-1345) (P46940 962-1345): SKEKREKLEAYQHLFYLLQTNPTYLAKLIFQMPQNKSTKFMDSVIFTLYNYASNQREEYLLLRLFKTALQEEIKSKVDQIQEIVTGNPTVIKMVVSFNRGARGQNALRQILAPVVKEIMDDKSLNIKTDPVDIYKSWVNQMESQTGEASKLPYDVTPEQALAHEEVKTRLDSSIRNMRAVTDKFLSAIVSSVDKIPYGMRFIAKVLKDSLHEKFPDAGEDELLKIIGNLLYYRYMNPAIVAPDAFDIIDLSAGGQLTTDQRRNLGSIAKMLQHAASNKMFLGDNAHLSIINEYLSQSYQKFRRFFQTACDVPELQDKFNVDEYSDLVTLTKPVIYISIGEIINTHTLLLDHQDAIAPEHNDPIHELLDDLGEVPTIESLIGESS

With “human IQGAP1 C794 (aa 863-1657) (from UniProt P46940 863-1657) (domain or fragment)”, the fold lower affinity than for CDC42 WT in experiment [1] is 3 fold; in experiment [2] it was 20 fold. Also, the fold reduction in binding affinity against CDC42 WT in experiment [3] was determined as 86 fold.
For “human IQGAP1 GRD1 (aa 962-1345) (from UniProt P46940 962-1345) (domain or fragment)”, the fold reduction in binding affinity against CDC42 WT in experiment [4] is 2 fold and 3 fold.

The values are drawn from article PMC9408373.
